Experimental findings from publication PMC12205362 are described below.

In the data set the test system is MutS (Cy3-labeled) (Escherichia coli). Kind of data set: smFRET (TIRF). As to conditions: GT mismatch, amino-dT, smTIRF FRET on surface-immobilized plasmids, imaging buffer and temperature not in material, dCas9 RNP assembled in 30 mM HEPES, 150 mM KCl, pH 7.5, MutS with …; for binding signal (fold lower k-1 vs RC): ATP.

Turning to “pUC19HL_MutS GT mismatch, negatively supercoiled (-)SC”, the binding signal (fold lower k-1 vs RC) (k1 ~1.3x higher than RC, negatively supercoiled by gyrase, average sigma -0.07) is 1.3. Moreover, the binding signal (negatively supercoiled by gyrase, average sigma -0.07) is 0.075 s-1 (koff). Regarding “pUC19HL_MutS GT mismatch, positively supercoiled (+)SC”, the binding signal (fold lower k-1 vs RC) (k1 similar to RC, positively supercoiled by 9N reverse gyrase, average sigma +0.03) came to 1.3. Also, the binding signal (positively supercoiled by 9N reverse gyrase, average sigma +0.03) was 0.107 s-1 (koff). For “pUC19HL_MutS GT mismatch, relaxed circular (RC)”, under “covalently closed relaxed circle”, the binding signal is 0.204 s-1 (koff).
